Kd data for one molecule are collected here from US20100291074A1 (COLUMBIA UNIVERSITY IN THE CITY OF NEW YORK, published 2010).

One test has as its target T1, monomeric Aβ40 (UniProt P05067 672-711).
T1 construct: domain: Aβ(1-40); Immobilized on a CM5 chip by amine coupling for SPR; also called Aβ(1-40); amyloid beta
As to the kind of experiment: SPR (BIAcore 3000), Aβ immobilized on a CM5 chip, CypD in the mobile phase, 25° C.; monomeric Aβ40. As for the experimental part: (§1) Aβ(1-40) and Aβ(1-42), including monomeric and oligomeric Aβ, were used in the binding assay. The kinetic parameters evaluating binding affinity were analyzed as described in the Examples. […] The evaluating curves (red line) were overlaid with experimental data.
(§2) The monomeric and oligomeric Aβ were prepared as described and characterized by atomic force microscopy. SPR studies were performed on a BIAcore 3000 system (BIAcore AB, Uppsala, Sweden). Aβ (500 μg/ml) was immobilized using the standard amino coupling on a research-grade CM5 sensor chip. […] The binding curves were analyzed with the global fitting model using BIA evaluation version 4.0.1 (BIAcore AB).

The target of a further test is T2, monomeric Aβ42 (UniProt P05067 672-713).
T2 construct: domain: Aβ(1-42); Immobilized on a CM5 chip by amine coupling for SPR; also called Aβ(1-42); amyloid beta
The test is described as follows: SPR (BIAcore 3000), Aβ immobilized on a CM5 chip, CypD in the mobile phase, 25° C.; monomeric Aβ42. The procedure: as §1, §2

In another test the target is T3, oligomeric Aβ40 (UniProt P05067 672-711).
T3 construct: domain: Aβ(1-40); Oligomer; Immobilized on a CM5 chip for SPR; also called Aβ(1-40); amyloid beta
As to the kind of experiment: SPR (BIAcore 3000), Aβ immobilized on a CM5 chip, CypD in the mobile phase, 25° C.; oligomeric Aβ40. The procedure: as §1, §2
(Surface plasmon resonance follows binding to a sensor surface in real time, without labels.)

A further test concerns the target T4, oligomeric Aβ42 (UniProt P05067 672-713).
T4 construct: domain: Aβ(1-42); Oligomer; Immobilized on a CM5 chip for SPR; also called Aβ(1-42); amyloid beta
As to the kind of experiment: SPR (BIAcore 3000), Aβ immobilized on a CM5 chip, CypD in the mobile phase, 25° C.; oligomeric Aβ42. The procedure:
as §1, §2

T4 sequence (P05067 672-713 limits assumed): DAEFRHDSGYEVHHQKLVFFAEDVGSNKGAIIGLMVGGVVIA
T2 sequence (P05067 672-713 limits assumed): as above
T1 sequence (P05067 672-711 limits assumed): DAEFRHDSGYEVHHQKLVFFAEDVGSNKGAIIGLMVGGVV
T3 sequence (P05067 672-711 limits assumed): as above

B1: purified recombinant human CypD protein (Cyclophilin D) (enzyme)
chain: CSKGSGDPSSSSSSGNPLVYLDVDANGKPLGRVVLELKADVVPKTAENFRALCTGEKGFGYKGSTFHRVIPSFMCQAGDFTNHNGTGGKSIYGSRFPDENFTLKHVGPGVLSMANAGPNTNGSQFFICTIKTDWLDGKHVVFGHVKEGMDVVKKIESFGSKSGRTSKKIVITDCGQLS
notes: also called human mitochondrial CypD protein; PPIF
B1: the equilibrium dissociation constant (Kd) (as a rule, the constant that tells how readily two partners part at equilibrium) turned out to be 1700 nM with monomeric Aβ40, 164 nM in the test with monomeric Aβ42, 227 nM with oligomeric Aβ40 and 4 nM in the test with oligomeric Aβ42.
